{"source": "patent US20260176319A1", "about": "(KALLYOPE, published 2026)", "binders": {"B1": {"name": "Peptide 65 (peptide)", "peptide": "{C18 diacid}-[d(γGlu)][AEEA][AEEA]GK(Ac)HWAV[dA]HL[Nle]-NH2", "SMILES": "CCCC[C@H](NC(=O)[C@H](CC(C)C)NC(=O)[C@H](Cc1c[nH]cn1)NC(=O)[C@@H](C)NC(=O)[C@@H](NC(=O)[C@H](C)NC(=O)[C@H](Cc1c[nH]c2ccccc12)NC(=O)[C@H](Cc1c[nH]cn1)NC(=O)[C@H](CCCCNC(C)=O)NC(=O)CNC(=O)COCCOCCNC(=O)COCCOCCNC(=O)CC[C@@H](NC(=O)CCCCCCCCCCCCCCCCC(=O)O)C(=O)O)C(C)C)C(N)=O"}, "B2": {"name": "Peptide 63 (peptide)", "peptide": "Palmitoyl-[d(γGlu)][AEEA][AEEA]GNH[Trp(6-Me)]AV[dA]HL[Nle]-NH2", "SMILES": "CCCCCCCCCCCCCCCC(=O)N[C@H](CCC(=O)NCCOCCOCC(=O)NCCOCCOCC(=O)NCC(=O)N[C@@H](CC(N)=O)C(=O)N[C@@H](Cc1c[nH]cn1)C(=O)N[C@@H](Cc1c[nH]c2cc(C)ccc12)C(=O)N[C@@H](C)C(=O)N[C@H](C(=O)N[C@H](C)C(=O)N[C@@H](Cc1c[nH]cn1)C(=O)N[C@@H](CC(C)C)C(=O)N[C@@H](CCCC)C(N)=O)C(C)C)C(=O)O"}, "B3": {"name": "Peptide 64 (peptide)", "peptide": "{C18 diacid}-[d(γGlu)][AEEA][AEEA]GN[3Pal]WAV[dA]HL[Nle]-NH2", "SMILES": "CCCC[C@H](NC(=O)[C@H](CC(C)C)NC(=O)[C@H](Cc1c[nH]cn1)NC(=O)[C@@H](C)NC(=O)[C@@H](NC(=O)[C@H](C)NC(=O)[C@H](Cc1c[nH]c2ccccc12)NC(=O)[C@H](Cc1cccnc1)NC(=O)[C@H](CC(N)=O)NC(=O)CNC(=O)COCCOCCNC(=O)COCCOCCNC(=O)CC[C@@H](NC(=O)CCCCCCCCCCCCCCCCC(=O)O)C(=O)O)C(C)C)C(N)=O"}, "B4": {"name": "Peptide 67 (peptide)", "peptide": "{C18 diacid}-[d(γGlu)][AEEA][AEEA]GEHWAV[dA][3Pal]L[Nle]-NH2", "SMILES": "CCCC[C@H](NC(=O)[C@H](CC(C)C)NC(=O)[C@H](Cc1cccnc1)NC(=O)[C@@H](C)NC(=O)[C@@H](NC(=O)[C@H](C)NC(=O)[C@H](Cc1c[nH]c2ccccc12)NC(=O)[C@H](Cc1c[nH]cn1)NC(=O)[C@H](CCC(=O)O)NC(=O)CNC(=O)COCCOCCNC(=O)COCCOCCNC(=O)CC[C@@H](NC(=O)CCCCCCCCCCCCCCCCC(=O)O)C(=O)O)C(C)C)C(N)=O"}, "B5": {"name": "Peptide 72 (peptide)", "peptide": "{C18 diacid}-[d(γGlu)][AEEA][AEEA]GN[3Pal]WAV[dA]HL[Nle][Sar]-NH2", "SMILES": "CCCC[C@H](NC(=O)[C@H](CC(C)C)NC(=O)[C@H](Cc1c[nH]cn1)NC(=O)[C@@H](C)NC(=O)[C@@H](NC(=O)[C@H](C)NC(=O)[C@H](Cc1c[nH]c2ccccc12)NC(=O)[C@H](Cc1cccnc1)NC(=O)[C@H](CC(N)=O)NC(=O)CNC(=O)COCCOCCNC(=O)COCCOCCNC(=O)CC[C@@H](NC(=O)CCCCCCCCCCCCCCCCC(=O)O)C(=O)O)C(C)C)C(=O)N(C)CC(N)=O"}, "B6": {"name": "Peptide 74 (peptide)", "peptide": "{C18 diacid}-[d(γGlu)][AEEA][AEEA][Aib]NHWAV[dA]HL[Nle]-NH2", "SMILES": "CCCC[C@H](NC(=O)[C@H](CC(C)C)NC(=O)[C@H](Cc1c[nH]cn1)NC(=O)[C@@H](C)NC(=O)[C@@H](NC(=O)[C@H](C)NC(=O)[C@H](Cc1c[nH]c2ccccc12)NC(=O)[C@H](Cc1c[nH]cn1)NC(=O)[C@H](CC(N)=O)NC(=O)C(C)(C)NC(=O)COCCOCCNC(=O)COCCOCCNC(=O)CC[C@@H](NC(=O)CCCCCCCCCCCCCCCCC(=O)O)C(=O)O)C(C)C)C(N)=O"}, "B7": {"name": "Peptide 66 (peptide)", "peptide": "{C18 diacid}-[d(γGlu)][AEEA][AEEA]GNHWAV[dA][3Pal]L[Nle]-NH2", "SMILES": "CCCC[C@H](NC(=O)[C@H](CC(C)C)NC(=O)[C@H](Cc1cccnc1)NC(=O)[C@@H](C)NC(=O)[C@@H](NC(=O)[C@H](C)NC(=O)[C@H](Cc1c[nH]c2ccccc12)NC(=O)[C@H](Cc1c[nH]cn1)NC(=O)[C@H](CC(N)=O)NC(=O)CNC(=O)COCCOCCNC(=O)COCCOCCNC(=O)CC[C@@H](NC(=O)CCCCCCCCCCCCCCCCC(=O)O)C(=O)O)C(C)C)C(N)=O"}, "B8": {"name": "Peptide 61 (peptide)", "peptide": "{C18 diacid}-[d(γGlu)][AEEA][AEEA]GRHWAV[dA]HL[Nle]-NH2", "SMILES": "CCCC[C@H](NC(=O)[C@H](CC(C)C)NC(=O)[C@H](Cc1c[nH]cn1)NC(=O)[C@@H](C)NC(=O)[C@@H](NC(=O)[C@H](C)NC(=O)[C@H](Cc1c[nH]c2ccccc12)NC(=O)[C@H](Cc1c[nH]cn1)NC(=O)[C@H](CCCNC(=N)N)NC(=O)CNC(=O)COCCOCCNC(=O)COCCOCCNC(=O)CC[C@@H](NC(=O)CCCCCCCCCCCCCCCCC(=O)O)C(=O)O)C(C)C)C(N)=O"}, "B9": {"name": "Peptide 68 (peptide)", "peptide": "{C18 diacid}-[d(γGlu)][AEEA][AEEA]GNHHAV[dA]HL[Nle]-NH2", "SMILES": "CCCC[C@H](NC(=O)[C@H](CC(C)C)NC(=O)[C@H](Cc1c[nH]cn1)NC(=O)[C@@H](C)NC(=O)[C@@H](NC(=O)[C@H](C)NC(=O)[C@H](Cc1c[nH]cn1)NC(=O)[C@H](Cc1c[nH]cn1)NC(=O)[C@H](CC(N)=O)NC(=O)CNC(=O)COCCOCCNC(=O)COCCOCCNC(=O)CC[C@@H](NC(=O)CCCCCCCCCCCCCCCCC(=O)O)C(=O)O)C(C)C)C(N)=O"}, "B10": {"name": "Peptide 71 (peptide)", "peptide": "{C18 diacid}-[d(γGlu)][AEEA][AEEA]K(Ac)HWAV[dA]HL[Nle]-NH2", "SMILES": "CCCC[C@H](NC(=O)[C@H](CC(C)C)NC(=O)[C@H](Cc1c[nH]cn1)NC(=O)[C@@H](C)NC(=O)[C@@H](NC(=O)[C@H](C)NC(=O)[C@H](Cc1c[nH]c2ccccc12)NC(=O)[C@H](Cc1c[nH]cn1)NC(=O)[C@H](CCCCNC(C)=O)NC(=O)COCCOCCNC(=O)COCCOCCNC(=O)CC[C@@H](NC(=O)CCCCCCCCCCCCCCCCC(=O)O)C(=O)O)C(C)C)C(N)=O"}, "B11": {"name": "Peptide 4 (peptide)", "peptide": "{C18 diacid}-[d(γGlu)][AEEA][AEEA]GNHWAV[Aib]HL[Nle]-NH2", "SMILES": "CCCC[C@H](NC(=O)[C@H](CC(C)C)NC(=O)[C@H](Cc1c[nH]cn1)NC(=O)C(C)(C)NC(=O)[C@@H](NC(=O)[C@H](C)NC(=O)[C@H](Cc1c[nH]c2ccccc12)NC(=O)[C@H](Cc1c[nH]cn1)NC(=O)[C@H](CC(N)=O)NC(=O)CNC(=O)COCCOCCNC(=O)COCCOCCNC(=O)CC[C@@H](NC(=O)CCCCCCCCCCCCCCCCC(=O)O)C(=O)O)C(C)C)C(N)=O"}, "B12": {"name": "Peptide 73 (peptide)", "peptide": "{C18 diacid}-[d(γGlu)][AEEA][AEEA]GN[3Pal][Trp(7-Me)]AV[dA]HL[Nle][Sar]-NH2", "SMILES": "CCCC[C@H](NC(=O)[C@H](CC(C)C)NC(=O)[C@H](Cc1c[nH]cn1)NC(=O)[C@@H](C)NC(=O)[C@@H](NC(=O)[C@H](C)NC(=O)[C@H](Cc1c[nH]c2c(C)cccc12)NC(=O)[C@H](Cc1cccnc1)NC(=O)[C@H](CC(N)=O)NC(=O)CNC(=O)COCCOCCNC(=O)COCCOCCNC(=O)CC[C@@H](NC(=O)CCCCCCCCCCCCCCCCC(=O)O)C(=O)O)C(C)C)C(=O)N(C)CC(N)=O"}, "B13": {"name": "Peptide 69 (peptide)", "peptide": "{C18 diacid}-[d(γGlu)][AEEA][AEEA]GNHWAV[dA]HLR-NH2", "SMILES": "CC(C)C[C@H](NC(=O)[C@H](Cc1c[nH]cn1)NC(=O)[C@@H](C)NC(=O)[C@@H](NC(=O)[C@H](C)NC(=O)[C@H](Cc1c[nH]c2ccccc12)NC(=O)[C@H](Cc1c[nH]cn1)NC(=O)[C@H](CC(N)=O)NC(=O)CNC(=O)COCCOCCNC(=O)COCCOCCNC(=O)CC[C@@H](NC(=O)CCCCCCCCCCCCCCCCC(=O)O)C(=O)O)C(C)C)C(=O)N[C@@H](CCCNC(=N)N)C(N)=O"}, "B14": {"name": "Peptide 70 (peptide)", "peptide": "{C18 diacid}-[d(γGlu)][AEEA][AEEA]GEHW[Aib]V[dA]HL[Nle]-NH2", "SMILES": "CCCC[C@H](NC(=O)[C@H](CC(C)C)NC(=O)[C@H](Cc1c[nH]cn1)NC(=O)[C@@H](C)NC(=O)[C@@H](NC(=O)C(C)(C)NC(=O)[C@H](Cc1c[nH]c2ccccc12)NC(=O)[C@H](Cc1c[nH]cn1)NC(=O)[C@H](CCC(=O)O)NC(=O)CNC(=O)COCCOCCNC(=O)COCCOCCNC(=O)CC[C@@H](NC(=O)CCCCCCCCCCCCCCCCC(=O)O)C(=O)O)C(C)C)C(N)=O"}, "B15": {"name": "Peptide 62 (peptide)", "peptide": "{C18 diacid}-[d(γGlu)][AEEA][AEEA]GNHWAV[dA]FL[Nle]-NH2", "SMILES": "CCCC[C@H](NC(=O)[C@H](CC(C)C)NC(=O)[C@H](Cc1ccccc1)NC(=O)[C@@H](C)NC(=O)[C@@H](NC(=O)[C@H](C)NC(=O)[C@H](Cc1c[nH]c2ccccc12)NC(=O)[C@H](Cc1c[nH]cn1)NC(=O)[C@H](CC(N)=O)NC(=O)CNC(=O)COCCOCCNC(=O)COCCOCCNC(=O)CC[C@@H](NC(=O)CCCCCCCCCCCCCCCCC(=O)O)C(=O)O)C(C)C)C(N)=O"}, "B16": {"name": "Peptide 75 (peptide)", "peptide": "Palmitoyl-[d(γGlu)][AEEA][AEEA]GNHWAV[dA]HL[Nle][Aib]-NH2", "SMILES": "CCCCCCCCCCCCCCCC(=O)N[C@H](CCC(=O)NCCOCCOCC(=O)NCCOCCOCC(=O)NCC(=O)N[C@@H](CC(N)=O)C(=O)N[C@@H](Cc1c[nH]cn1)C(=O)N[C@@H](Cc1c[nH]c2ccccc12)C(=O)N[C@@H](C)C(=O)N[C@H](C(=O)N[C@H](C)C(=O)N[C@@H](Cc1c[nH]cn1)C(=O)N[C@@H](CC(C)C)C(=O)N[C@@H](CCCC)C(=O)NC(C)(C)C(N)=O)C(C)C)C(=O)O"}}, "note": "Starred links: 1 amine or outer side, 2 acyl side, 3 side chain; linkers in the order of their positions; H or OH if unused. Non-standard residues stand in square brackets, D forms with d. *: point of attachment. Trp(6-Me) = Cc1ccc2c(C[C@H](N)C(=O)O)c[nH]c2c1; Trp(7-Me) = Cc1cccc2c(C[C@H](N)C(=O)O)c[nH]c12; d(γGlu) = O=C(O)[C@@H](CCC(=O)[*:2])N[*:1]; C18 diacid = O=C(O)CCCCCCCCCCCCCCCCC(=O)*; Palmitoyl = CCCCCCCCCCCCCCCC(=O)*; 3Pal = N[C@@H](Cc1cccnc1)C(=O)O; Nle = CCCC[C@H](N)C(=O)O; AEEA = NCCOCCOCC(=O)O; Aib = CC(C)(N)C(=O)O; Sar = CNCC(=O)O"}
{"target": "human GRP receptor (human, UniProt P30550 1-384)", "sequence (P30550 whole entry)": "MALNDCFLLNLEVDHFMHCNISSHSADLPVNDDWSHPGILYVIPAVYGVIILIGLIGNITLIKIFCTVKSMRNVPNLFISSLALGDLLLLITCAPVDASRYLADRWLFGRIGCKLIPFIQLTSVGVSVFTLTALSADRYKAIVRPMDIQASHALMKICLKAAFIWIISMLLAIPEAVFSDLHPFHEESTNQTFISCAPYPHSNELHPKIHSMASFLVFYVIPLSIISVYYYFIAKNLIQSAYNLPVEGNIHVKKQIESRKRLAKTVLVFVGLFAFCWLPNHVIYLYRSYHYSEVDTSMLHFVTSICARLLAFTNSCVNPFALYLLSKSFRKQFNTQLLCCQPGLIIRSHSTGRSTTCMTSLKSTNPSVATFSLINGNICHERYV", "assay": "cell-based or functional assay", "units": {"hIP1 GRPR EC50": "nM"}}
{"binder": "B1", "hIP1 GRPR EC50": 6.05}
{"binder": "B2", "hIP1 GRPR EC50": 4.75}
{"binder": "B3", "hIP1 GRPR EC50": 49.4}
{"binder": "B4", "hIP1 GRPR EC50": 1050}
{"binder": "B5", "hIP1 GRPR EC50": 1050}
{"binder": "B6", "hIP1 GRPR EC50": 25.5}
{"binder": "B7", "hIP1 GRPR EC50": 308}
{"binder": "B8", "hIP1 GRPR EC50": 8.25}
{"binder": "B9", "hIP1 GRPR EC50": "> 10000"}
{"binder": "B10", "hIP1 GRPR EC50": 6.2}
{"binder": "B11", "hIP1 GRPR EC50": 1420}
{"binder": "B12", "hIP1 GRPR EC50": 1190}
{"binder": "B13", "hIP1 GRPR EC50": "> 10000"}
{"binder": "B14", "hIP1 GRPR EC50": 972}
{"binder": "B15", "hIP1 GRPR EC50": 83.7}
{"binder": "B16", "hIP1 GRPR EC50": 18.2}
